Assay results from patent US20240059799A1 (Pfizer, published 2024).

Target: T1, recombinant human TL1A (human, UniProt O95150 71-251)
T1 construct: homotrimer; biotinylated for SPR capture; the ELISA paragraphs say only 'recombinant TL1A'; also called TNFSF15
T1 chain: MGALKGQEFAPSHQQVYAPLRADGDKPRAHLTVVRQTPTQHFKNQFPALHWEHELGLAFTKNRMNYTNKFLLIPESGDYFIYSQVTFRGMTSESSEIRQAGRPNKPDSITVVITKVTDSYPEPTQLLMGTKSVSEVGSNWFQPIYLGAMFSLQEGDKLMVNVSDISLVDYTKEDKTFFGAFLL
Assay: competition ELISA vs bio-TL1A-0002
Procedure: For this competition ELISA assay procedure, 96-well high binding plates (Corning, product number 3590) were coated with 1 μg/mL recombinant TL1A in 100 μL/well in Phospate Buffered Saline (PBS) overnight at 4° C. Plates were then blocked in PBS+0.02% casein solution and washed with PBS+0.05% Tween-20 following standard ELISA protocol. […] Plates were washed with PBS+0.05% Tween-20 following standard ELISA protocol, and Streptavidin-HRP (Southern Biotech, product number 7100-05) diluted to 1:10,000 in assay buffer was added to plates and incubated for 25-30 minutes at room temperature. Next, the plates were washed with PBS+0.05% Tween-20 following standard ELISA protocol, and then TMB substrate (BioFX Laboratories, catalog number TMBW-0100-01) was added to plates. Reactions were stopped after approximately 5 minutes by adding 0.18 M ortho-phosphoric acid to each well and absorbance was read at 450 nm.

B1: TL1A-0026 (antibody, IgG1, V domains shown)
VH: QVQLVQSGAEVKKPGASVKVSCKASGYDFTYYGISWVRQAPGQGLEWMGWISTYNGNEHYADSLQGRVTMTTDTSTRTAYMELRSLRSDDTAVYYCARENYYGSGAYRGGMDVWGQGTTVTVSS
VL: EIVLTQSPATLSLSPGERATLSCRASQSVSSYLAWYQQKPGQAPRLLIYDASNRATGIPARFSGSGSGTDFTLTISSLEPEDFAVYYCQQRSNWPWTFGQGTKVEIKR
notes: IgG1/kappa variant of TL1A-0002
- Bioactivity relative to TL1A-0002: 2 fold
- IC50: 8.9 nM

B2: TL1A-0027 (antibody, IgG1, V domains shown)
VH: QVQLVQSGAEVKKPGASVKVSCKASGYDFTYYGISWVRQAPGQGLEWMGWISAYNGNTNYAQKLQGRVTMTTDTSTRTAYMELRSLRSDDTAVYYCARENYYGSGAYRGGMDVWGQGTTVTVSS
VL: EIVLTQSPATLSLSPGERATLSCRASQSVSSYLAWYQQKPGQAPRLLIYDASNRATGIPARFSGSGSGTDFTLTISSLEPEDFAVYYCQQRSNWPWTFGQGTKVEIKR
notes: as for B1
- Bioactivity relative to TL1A-0002: 1.9 fold
- IC50: 8.3 nM

B3: TL1A-0028 (antibody, IgG1, V domains shown)
VH: QVQLVQSGAEVKKPGASVKVSCKASGYDFTYYGISWVRQAPGQGLEWMGWISTYNGNTHYARMLQGRVTMTTDTSTRTAYMELRSLRSDDTAVYYCARENYWGSGAYRGGMDVWGQGTTVTVSS
VL: EIVLTQSPATLSLSPGERATLSCRASQSVSSYLAWYQQKPGQAPRLLIYDASNRATGIPARFSGSGSGTDFTLTISSLEPEDFAVYYCQQRSNWPWTFGQGTKVEIKR
notes: as for B1
- Bioactivity relative to TL1A-0002: 1.2 fold
- IC50: 5.4 nM

B4: TL1A-0029 (antibody, IgG1, V domains shown)
VH: QVQLVQSGAEVKKPGASVKVSCKASGYDFTYYGISWVRQAPGQGLEWMGWISTYNGNTHYARMLQGRVTMTTDTSTRTAYMELRSLRSDDTAVYYCARENLYGSGAYRGGMDVWGQGTTVTVSS
VL: EIVLTQSPATLSLSPGERATLSCRASQSVSSYLAWYQQKPGQAPRLLIYDASNRATGIPARFSGSGSGTDFTLTISSLEPEDFAVYYCQQRSNWPWTFGQGTKVEIKR
notes: as for B1
- Bioactivity relative to TL1A-0002: 1.7 fold
- IC50: 7.8 nM

B5: TL1A-0030 (antibody, IgG1, V domains shown)
VH: QVQLVQSGAEVKKPGASVKVSCKASGYDFTYYGISWVRQAPGQGLEWMGWISTYNGNTHYARMLQGRVTMTTDTSTRTAYMELRSLRSDDTAVYYCARENYYGSGEYRGGMDVWGQGTTVTVSS
VL: EIVLTQSPATLSLSPGERATLSCRASQSVSSYLAWYQQKPGQAPRLLIYDASNRATGIPARFSGSGSGTDFTLTISSLEPEDFAVYYCQQRSNWPWTFGQGTKVEIKR
notes: as for B1
- Bioactivity relative to TL1A-0002: 1.4 fold
- IC50: 6.1 nM

B6: TL1A-0031 (antibody, IgG1, V domains shown)
VH: QVQLVQSGAEVKKPGASVKVSCKASGYDFTYYGISWVRQAPGQGLEWMGWISTYNGNTHYARMLQGRVTMTTDTSTRTAYMELRSLRSDDTAVYYCARENYYGSGDYRGGMDVWGQGTTVTVSS
VL: EIVLTQSPATLSLSPGERATLSCRASQSVSSYLAWYQQKPGQAPRLLIYDASNRATGIPARFSGSGSGTDFTLTISSLEPEDFAVYYCQQRSNWPWTFGQGTKVEIKR
notes: as for B1
- Bioactivity relative to TL1A-0002: 1.6 fold
- IC50: 7.4 nM

B7: TL1A-0033 (antibody, IgG1, V domains shown)
VH: QVQLVQSGAEVKKPGASVKVSCKASGYDFTYYGISWVRQAPGQGLEWMGWISTYNGNTHYARMLQGRVTMTTDTSTRTAYMELRSLRSDDTAVYYCARENYYGSGAFRGGMDVWGQGTTVTVSS
VL: EIVLTQSPATLSLSPGERATLSCRASQSVSSYLAWYQQKPGQAPRLLIYDASNRATGIPARFSGSGSGTDFTLTISSLEPEDFAVYYCQQRSNWPWTFGQGTKVEIKR
notes: as for B1
- Bioactivity relative to TL1A-0002: 0.8 fold
- IC50: 3.6 nM

B8: TL1A-0038 (antibody, IgG1, V domains shown)
VH: QVQLVQSGAEVKKPGASVKVSCKASGYDFTYYGISWVRQAPGQGLEWMGWISTYNGNTHYARMLQGRVTMTTDTSTRTAYMELRSLRSDDTAVYYCARENYYGSGDFRGGMDVWGQGTTVTVSS
VL: EIVLTQSPATLSLSPGERATLSCRASQSVSSYLAWYQQKPGQAPRLLIYDASNRATGIPARFSGSGSGTDFTLTISSLEPEDFAVYYCQQRSNWPWTFGQGTKVEIKR
notes: as for B1
- Bioactivity relative to TL1A-0002: 1.6 fold
- IC50: 7.2 nM

B9: TL1A-0040 (antibody, IgG1, V domains shown)
VH: QVQLVQSGAEVKKPGASVKVSCKASGYDFTYYGISWVRQAPGQGLEWMGWISTYNGNTHYARMLQGRVTMTTDTSTRTAYMELRSLRSDDTAVYYCARENYYGSGDHRGGMDVWGQGTTVTVSS
VL: EIVLTQSPATLSLSPGERATLSCRASQSVSSYLAWYQQKPGQAPRLLIYDASNRATGIPARFSGSGSGTDFTLTISSLEPEDFAVYYCQQRSNWPWTFGQGTKVEIKR
notes: as for B1
- Bioactivity relative to TL1A-0002: 1 fold
- IC50: 4.7 nM

B10: TL1A-0061 (antibody, IgG1, V domains shown)
VH: QVQLVQSGAEVKKPGASVKVSCKASGFDFTYYGISWVRQAPGQGLEWMGWISTYNGNTHYARMLQGRVTMTTDTSTRTAYMELRSLRSDDTAVYYCARENYYGSGAYRGGMDVWGQGTTVTVSS
VL: EIVLTQSPATLSLSPGERATLSCRASQSVSSYLAWYQQKPGQAPRLLIYDASNRATGIPARFSGSGSGTDFTLTISSLEPEDFAVYYCQQRSNWPWTFGQGTKVEIKR
notes: as for B1
- Bioactivity relative to TL1A-0002: 1 fold
- IC50: 4.6 nM

B11: TL1A-0062 (antibody, IgG1, V domains shown)
VH: QVQLVQSGAEVKKPGASVKVSCKASGYDYTYYGISWVRQAPGQGLEWMGWISTYNGNTHYARMLQGRVTMTTDTSTRTAYMELRSLRSDDTAVYYCARENYYGSGAYRGGMDVWGQGTTVTVSS
VL: EIVLTQSPATLSLSPGERATLSCRASQSVSSYLAWYQQKPGQAPRLLIYDASNRATGIPARFSGSGSGTDFTLTISSLEPEDFAVYYCQQRSNWPWTFGQGTKVEIKR
notes: as for B1
- Bioactivity relative to TL1A-0002: 0.9 fold
- IC50: 4 nM

B12: TL1A-0063 (antibody, IgG1, V domains shown)
VH: QVQLVQSGAEVKKPGASVKVSCKASGYDFSYYGISWVRQAPGQGLEWMGWISTYNGNTHYARMLQGRVTMTTDTSTRTAYMELRSLRSDDTAVYYCARENYYGSGAYRGGMDVWGQGTTVTVSS
VL: EIVLTQSPATLSLSPGERATLSCRASQSVSSYLAWYQQKPGQAPRLLIYDASNRATGIPARFSGSGSGTDFTLTISSLEPEDFAVYYCQQRSNWPWTFGQGTKVEIKR
notes: as for B1
- Bioactivity relative to TL1A-0002: 0.9 fold
- IC50: 4.1 nM

B13: TL1A-0067 (antibody, IgG1, V domains shown)
VH: QVQLVQSGAEVKKPGASVKVSCKASGYDFTFYGISWVRQAPGQGLEWMGWISTYNGNTHYARMLQGRVTMTTDTSTRTAYMELRSLRSDDTAVYYCARENYYGSGAYRGGMDVWGQGTTVTVSS
VL: EIVLTQSPATLSLSPGERATLSCRASQSVSSYLAWYQQKPGQAPRLLIYDASNRATGIPARFSGSGSGTDFTLTISSLEPEDFAVYYCQQRSNWPWTFGQGTKVEIKR
notes: as for B1
- Bioactivity relative to TL1A-0002: 1.1 fold
- IC50: 5.1 nM

B14: TL1A-0068 (antibody, IgG1, V domains shown)
VH: QVQLVQSGAEVKKPGASVKVSCKASGYDFTKYGISWVRQAPGQGLEWMGWISTYNGNTHYARMLQGRVTMTTDTSTRTAYMELRSLRSDDTAVYYCARENYYGSGAYRGGMDVWGQGTTVTVSS
VL: EIVLTQSPATLSLSPGERATLSCRASQSVSSYLAWYQQKPGQAPRLLIYDASNRATGIPARFSGSGSGTDFTLTISSLEPEDFAVYYCQQRSNWPWTFGQGTKVEIKR
notes: as for B1
- Bioactivity relative to TL1A-0002: 1 fold
- IC50: 4.6 nM

B15: TL1A-0069 (antibody, IgG1, V domains shown)
VH: QVQLVQSGAEVKKPGASVKVSCKASGYDFTYHGISWVRQAPGQGLEWMGWISTYNGNTHYARMLQGRVTMTTDTSTRTAYMELRSLRSDDTAVYYCARENYYGSGAYRGGMDVWGQGTTVTVSS
VL: EIVLTQSPATLSLSPGERATLSCRASQSVSSYLAWYQQKPGQAPRLLIYDASNRATGIPARFSGSGSGTDFTLTISSLEPEDFAVYYCQQRSNWPWTFGQGTKVEIKR
notes: as for B1
- Bioactivity relative to TL1A-0002: 0.9 fold
- IC50: 4.1 nM

B16: TL1A-0071 (antibody, IgG1, V domains shown)
VH: QVQLVQSGAEVKKPGASVKVSCKASGYDFTYYGVSWVRQAPGQGLEWMGWISTYNGNTHYARMLQGRVTMTTDTSTRTAYMELRSLRSDDTAVYYCARENYYGSGAYRGGMDVWGQGTTVTVSS
VL: EIVLTQSPATLSLSPGERATLSCRASQSVSSYLAWYQQKPGQAPRLLIYDASNRATGIPARFSGSGSGTDFTLTISSLEPEDFAVYYCQQRSNWPWTFGQGTKVEIKR
notes: as for B1
- Bioactivity relative to TL1A-0002: 0.9 fold
- IC50: 3.9 nM

B17: TL1A-0073 (antibody, IgG1, V domains shown)
VH: QVQLVQSGAEVKKPGASVKVSCKASGYDFTYYGISWVRQAPGQGLEWMGWISTYNTNTHYAQKLQGRVTMTTDTSTRTAYMELRSLRSDDTAVYYCARENYYGSGAYRGGMDVWGQGTTVTVSS
VL: EIVLTQSPATLSLSPGERATLSCRASQSVSSYLAWYQQKPGQAPRLLIYDASNRATGIPARFSGSGSGTDFTLTISSLEPEDFAVYYCQQRSNWPWTFGQGTKVEIKR
notes: as for B1
- Bioactivity relative to TL1A-0002: 1.1 fold
- IC50: 5 nM

B18: TL1A-0074 (antibody, IgG1, V domains shown)
VH: QVQLVQSGAEVKKPGASVKVSCKASGYDFTYYGISWVRQAPGQGLEWMGWISTYNTNTHYAPSLQGRVTMTTDTSTRTAYMELRSLRSDDTAVYYCARENYYGSGAYRGGMDVWGQGTTVTVSS
VL: EIVLTQSPATLSLSPGERATLSCRASQSVSSYLAWYQQKPGQAPRLLIYDASNRATGIPARFSGSGSGTDFTLTISSLEPEDFAVYYCQQRSNWPWTFGQGTKVEIKR
notes: as for B1
- Bioactivity relative to TL1A-0002: 1 fold
- IC50: 4.5 nM
